Test results published in the supplement of paper PMC12042874.
± gives the uncertainty stated by the source.

Assay: amyloid nucleation score (Sup35N fusion, yeast selection) (log enrichment); library NNK1; higher = more nucleation; inactive = no reads after selection
Outline: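 Nucleation score is defined as the DiMSum log enrichment of output over input reads, with centring on the mode score of non-aggregating sequences. A minimum of 100 input reads was required for each sequence. Reads came from Illumina sequencing of plasmid inserts from psi-negative yeast expressing Sup35N fused to peptides of 20 random codons, induced with 100 μM copper sulfate for 24 hours and grown 7 days at 30°C on medium lacking adenine and uracil.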

Substance | amyloid nucleation score
YYLIFHFDYHLVIYLW | 0.707 ± 0.41
YYLQLIYMHKNRMLISCVCC | inactive
YYNNC | 0.501 ± 0.39
YYPNKLFEYSKWNHAAGRVR | 0.085 ± 0.64
YYQRTPSTDRSLWFTGWNVN | -0.424 ± 0.19
YYTCSSETM | 0.811 ± 0.39
YYVKISLGGSLNNLWKRDWW | 3.54 ± 0.1
YYYHVVWAQ | inactive
